According to paper PMC9124243 (Cell chemical biology, 2021):

B1: Mycobacterium tuberculosis GrpE (natural protein)
chain: MTDGNQKPDGNSGEQVTVTDKRRIDPETGEVRHVPPGDMPGGTAAADAAHTEDKVAELTADLQRVQADFANYRKRALRDQQAAADRAKASVVSQLLGVLDDLERARKHGDLESGPLKSVADKLDSALTGLGLVAFGAEGEDFDPVLHEAVQHEGDGGQGSKPVIGTVMRQGYQLGEQVLRHALVGVVDTVVVDAAELESVDDGTAVADTAENDQADQGNSADTSGEQAESEPSGS
B2: Mycobacterium tuberculosis DnaK T175A (catalytically dead mutant), full-length (natural protein)
chain: not shown

Columns and labels:
[1] = target: B2; assay: native gel or EMSA
native gel or EMSA = target: the molecule itself; assay: native gel or EMSA

| Binder | binding result [1] | binding result (native gel or EMSA) |
| --- | --- | --- |
| B1 | binds |  |
| B2 |  | binds |
